Columns and labels:
Assay in all cases: ELISA, growth factor coated at 10 μg/ml, antibody at 10 μg/ml, mean of duplicates
[1] = molecular target: T1, 重组人GDF-11(Peprotech公司，目录号120-11) (human, UniProt O95390 299-407)
T1 sequence (looked up): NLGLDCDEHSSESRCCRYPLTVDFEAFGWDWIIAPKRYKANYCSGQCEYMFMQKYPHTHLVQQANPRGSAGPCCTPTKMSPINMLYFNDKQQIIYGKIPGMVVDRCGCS

[2] = molecular target: IGF-1 (R&D Systems 291-G1) (UniProt P05019 49-118)
[3] = molecular target: BMP-2 (R&D Systems 355-BEC/CF) (UniProt P12643 283-396)
[4] = molecular target: T2, BMP-5 (R&D Systems 615-BM) (UniProt P22003 317-454, limits assumed)
T2 sequence (looked up): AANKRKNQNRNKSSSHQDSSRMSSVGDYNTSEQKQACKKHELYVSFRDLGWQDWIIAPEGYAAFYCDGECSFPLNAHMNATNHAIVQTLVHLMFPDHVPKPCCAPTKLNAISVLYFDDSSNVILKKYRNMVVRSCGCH

[5] = molecular target: T3, BMP-6 (R&D Systems 507-BP) (UniProt P22004 382-513, limits assumed)
T3 sequence (looked up): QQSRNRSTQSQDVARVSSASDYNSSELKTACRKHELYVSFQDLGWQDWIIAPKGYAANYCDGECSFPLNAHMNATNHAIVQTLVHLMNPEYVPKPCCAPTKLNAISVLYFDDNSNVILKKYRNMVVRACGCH

[6] = molecular target: T4, BMP-7 (R&D Systems 354-BP) (UniProt P18075 293-431)
T4 sequence (looked up): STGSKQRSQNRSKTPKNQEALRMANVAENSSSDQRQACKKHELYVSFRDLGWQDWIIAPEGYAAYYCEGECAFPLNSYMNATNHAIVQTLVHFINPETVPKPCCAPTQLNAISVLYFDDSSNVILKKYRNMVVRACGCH

[7] = molecular target: T5, 激活蛋白A (R&D Systems 338-AC) (UniProt P08476 311-426)
T5 construct: also called activin A
T5 sequence (looked up): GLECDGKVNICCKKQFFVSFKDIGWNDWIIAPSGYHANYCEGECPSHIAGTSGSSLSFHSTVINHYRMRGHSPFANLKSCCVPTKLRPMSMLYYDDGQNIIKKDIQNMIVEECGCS

[8] = molecular target: T6, 激活蛋白B (R&D Systems 659-AB) (UniProt P09529 293-407)
T6 construct: also called activin B
T6 sequence (looked up): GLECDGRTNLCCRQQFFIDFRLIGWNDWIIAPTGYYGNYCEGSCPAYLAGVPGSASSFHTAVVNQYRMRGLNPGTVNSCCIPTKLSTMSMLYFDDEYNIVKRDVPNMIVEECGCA

[9] = molecular target: T7, TGF-a (R&D Systems 239-A) (UniProt P01135 40-89)
T7 construct: also called TGF-α

[10] = molecular target: T8, TGF-b1 (Peprotech 100-21R) (UniProt P01137 279-390)
T8 construct: also called TGF-β1

[11] = molecular target: T9, TGF-b2 (Peprotech 100-35) (UniProt P61812 303-414)
T9 construct: also called TGF-β2
T9 sequence (looked up): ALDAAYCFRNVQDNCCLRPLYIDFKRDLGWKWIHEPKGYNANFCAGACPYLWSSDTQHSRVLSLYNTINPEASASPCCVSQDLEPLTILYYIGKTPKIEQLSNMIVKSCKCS

IGF-1 (R&D Systems 291-G1), sequence (P05019 49-118 limits assumed): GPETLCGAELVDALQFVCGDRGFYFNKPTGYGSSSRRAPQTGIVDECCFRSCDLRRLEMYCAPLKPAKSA
T7 sequence (P01135 40-89 limits assumed): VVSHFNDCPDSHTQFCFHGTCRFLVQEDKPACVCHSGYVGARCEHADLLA
BMP-2 (R&D Systems 355-BEC/CF), sequence (P12643 283-396 limits assumed): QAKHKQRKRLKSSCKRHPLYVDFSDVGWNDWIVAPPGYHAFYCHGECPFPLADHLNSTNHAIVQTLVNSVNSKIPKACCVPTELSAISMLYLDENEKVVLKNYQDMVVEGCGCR
T8 sequence (P01137 279-390 limits assumed): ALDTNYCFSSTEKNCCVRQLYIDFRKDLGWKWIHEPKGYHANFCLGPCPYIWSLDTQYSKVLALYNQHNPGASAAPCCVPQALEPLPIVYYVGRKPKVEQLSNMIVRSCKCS

Binder	平均吸光度 (OD 490 nm) [1]	平均吸光度 (OD 490 nm) [2]	平均吸光度 (OD 490 nm) [3]	平均吸光度 (OD 490 nm) [4]	平均吸光度 (OD 490 nm) [5]	平均吸光度 (OD 490 nm) [6]	平均吸光度 (OD 490 nm) [7]	平均吸光度 (OD 490 nm) [8]	平均吸光度 (OD 490 nm) [9]	平均吸光度 (OD 490 nm) [10]	平均吸光度 (OD 490 nm) [11]
抗肌肉生长抑素Fab 3 (Fab, V domains shown) VH: QVTLKESGPGILQSSQTLSLTCSLSGFSLRTSGMSVSWIRQSSGKGLEWLAHIYWDDDKRYNPSLRNRLTISKDTLRNQVFLKITSVGTADTATYYCARRAITTVIGGGTMDYWGQGTSVTVSS VL: QIVLTQSPAIMSASPGEKVTMTCSASSSISYMHWYQQKPGTSPKRWIYDTSKLASGVPARFSGSGSGTSYSLTISSMEAEDAATYYCQQWYSNPLTFGAGTKLELKR	0.0705 OD 490 nm	0.034 OD 490 nm	0.0345 OD 490 nm	0.034 OD 490 nm	0.0335 OD 490 nm	0.033 OD 490 nm	0.033 OD 490 nm	0.032 OD 490 nm	0.033 OD 490 nm	0.034 OD 490 nm	0.034 OD 490 nm
抗肌肉生长抑素Fab 5 (Fab, V domains shown) VH: QVTLKESGPGILQSSQTLSLTCSFSGFSLSTSGMSVSWIRQSSGKGLEWLAHIYWDDDKRYNPSLRSRLTISKDTSRNQVFLKITSVDTADTATYYCARRGITTVLGGGTMDYWGQGTSVTVSS VL: QVVLTQSPAIMSASLGEKVTMTCSASSSVHYMHWYQQKSGTSPKRWIYDTSKLASGVPARFSGSGSGTSYSLTISSMEAEDAATYYCQQWSSNPLTFGAGTKLELKR	0.034 OD 490 nm	0.035 OD 490 nm	0.032 OD 490 nm	0.033 OD 490 nm	0.0325 OD 490 nm	0.032 OD 490 nm	0.033 OD 490 nm	0.033 OD 490 nm	0.033 OD 490 nm	0.0325 OD 490 nm	0.034 OD 490 nm
抗肌肉生长抑素Fab 7 (Fab, V domains shown) VH: QVTLKSGPGILQSSQTLTLTCSLSGFSLTTSGMIVSWIRQSSGRGLEWLAHIYWDDDKRYNPSLRNRLTISKDTLRNQVFLWISSVGTADTATYYCARRAITTVIGGGTMDYWGQGTSVTVSS VL: QIVLTQSPAIMSASPGEKVTMTCSASSSISYMHWYQQKPGTSPKRWIYDTSKLASGVPARFSGSGSGTSYSLTISSMEAEDAATYYCQQWYSNPLTFGAGTKLELKR	0.04 OD 490 nm	0.034 OD 490 nm	0.0335 OD 490 nm	0.0345 OD 490 nm	0.035 OD 490 nm	0.031 OD 490 nm	0.0325 OD 490 nm	0.031 OD 490 nm	0.0315 OD 490 nm	0.032 OD 490 nm	0.0345 OD 490 nm

From patent CN1934266A (LILLY CO ELI, dated 2007)
